Results taken from patent US20170044251A1.

Tests used:
Experiment in all cases: ELISA on coated peptide-OVA conjugate, FCA control egg yolk sample, dilution not given
[1] = target: IL-10 Peptide #3 (SEQ ID NO: 7) conjugated to hen ovalbumin (avian animals, such as chickens, quail, and turkeys; hen) (UniProt P01012)
[2] = target: IL-10 Peptide #4 (SEQ ID NO: 10) conjugated to hen ovalbumin (avian animals, such as chickens, quail, and turkeys; hen) (UniProt P01012)
[3] = target: IL-10 Peptide #1 (SEQ ID NO: 1) conjugated to hen ovalbumin (avian animals, such as chickens, quail, and turkeys; hen) (UniProt P01012)

FCA control egg antibody
optical density [1]: 0.499 OD 450 nm
optical density [2]: 0.6 OD 450 nm
optical density [3]: 0.56 OD 450 nm
